Test [1] concerns the target delta opioid receptor (δ-OR, OPRD1). Details: method as in PMID 27744679. Particulars: calcium mobilization pathway; read-out: EC50 agonist, delta opioid receptor; cited from earlier work. (In general: Calcium assays in cells follow changes in intracellular calcium, usually with a dye or a luminescent sensor.)
The target of test [2] is T1, CCR3 (Homo sapiens, UniProt P51677).
T1 sequence (P51677 1-355): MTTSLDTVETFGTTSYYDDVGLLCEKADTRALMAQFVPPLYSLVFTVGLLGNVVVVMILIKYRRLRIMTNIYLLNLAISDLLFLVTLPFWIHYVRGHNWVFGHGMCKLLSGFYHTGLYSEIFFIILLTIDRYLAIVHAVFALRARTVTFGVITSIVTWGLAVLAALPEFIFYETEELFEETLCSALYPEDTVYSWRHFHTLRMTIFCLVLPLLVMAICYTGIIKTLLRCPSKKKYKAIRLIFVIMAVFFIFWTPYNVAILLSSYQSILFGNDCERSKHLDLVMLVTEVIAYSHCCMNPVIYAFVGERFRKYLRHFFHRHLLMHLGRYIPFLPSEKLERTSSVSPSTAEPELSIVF
The test can be described thus: PathHunter β-arrestin assay, positive allosteric modulation (PAM) mode. Type of test: cell-based. Particulars: control agonist; read-out: EC50 of positive control ligand. As for the experimental part: (§1) Hit validation was performed by subjecting the aaptamine to an agonist, antagonist, and positive allosteric modulation (PAM) secondary screen utilizing thirteen GPCR biosensor assays (Arrestin) against the following targets: ADRA2A, ADRA2C, ADRB2, CCR1, CCR3, CXCR3, CXCR7, DRD2L, DRD2S, DRD4, HTR1E, OPRK1, and SSTR1. The assays were performed at 10-point concentrations using three-fold serial dilutions in duplicate. For all the assay formats, the final assay vehicle concentration was 1%.
(§2) For PAM assays, the cells were preincubated with the sample followed by agonist induction at the EC20 concentration. To the cells, 5 µL of 5X sample was added and incubated for 30 min at 37 °C or room temperature. Following the incubation period, 5 µL of the 6X EC20 agonist prepared in an assay buffer was added to the cells and incubated for 90 or 180 min at 37 °C or room temperature. The percent activity of aaptamine was calculated following this formula: % modulation = 100% × ((mean RLU of test sample − mean RLU of EC20 control)/(mean RLU of MAX control ligand − mean RLU of EC20 control)).

Test [3] concerns the target T2, CCR1 (Homo sapiens, UniProt P32246).
T2 sequence (P32246 1-355): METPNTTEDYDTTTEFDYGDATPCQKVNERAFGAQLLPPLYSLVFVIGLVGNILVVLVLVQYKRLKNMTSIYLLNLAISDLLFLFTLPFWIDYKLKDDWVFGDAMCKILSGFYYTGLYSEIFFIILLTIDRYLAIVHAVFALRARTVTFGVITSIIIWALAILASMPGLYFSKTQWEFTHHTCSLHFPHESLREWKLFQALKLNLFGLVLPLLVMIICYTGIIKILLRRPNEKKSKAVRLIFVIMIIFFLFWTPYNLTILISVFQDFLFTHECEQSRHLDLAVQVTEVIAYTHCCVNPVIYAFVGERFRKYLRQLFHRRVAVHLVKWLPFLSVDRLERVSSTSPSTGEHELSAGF
The test is described as follows: PathHunter β-arrestin assay, agonist mode. Type of test: cell-based. Particulars: dose-response, agonist mode. How it is done:
Aaptamine (20 µM) was profiled in gpcrMAX panel biosensor assays (in agonist and antagonist modes) against a panel of 168 GPCRs. The assay was performed by DiscoverX Corporation (Fremont, CA) using PathHunter β -arrestin enzyme fragment complementation (EFC) technology, in a similar way to that described elsewhere. The PathHunter cell lines were taken from freezer stocks according to standard procedures. A total of 20 µL of cells were seeded into white 384-well plates and incubated at 37 °C for the appropriate time prior to testing.
For agonist determination, aaptamine was incubated with PathHunter cell lines to induce a response. To increase the concentration, intermediate dilution from 20 µM of aaptamine was performed to generate a 5X sample in an assay buffer. Then, 5 µL of 5X sample was added to the plate with PathHunter cells and incubated for 90 or 180 min at 37 °C or room temperature. The percentage activity of aaptamine was calculated following this formula: % activity = 100% × (mean RLU of test sample − mean RLU of vehicle control)/(mean MAX control ligand − mean RLU of vehicle control).
as §1

The target in test [4] is T3, CXCR3 (Homo sapiens, UniProt P49682).
T3 sequence (P49682 1-368): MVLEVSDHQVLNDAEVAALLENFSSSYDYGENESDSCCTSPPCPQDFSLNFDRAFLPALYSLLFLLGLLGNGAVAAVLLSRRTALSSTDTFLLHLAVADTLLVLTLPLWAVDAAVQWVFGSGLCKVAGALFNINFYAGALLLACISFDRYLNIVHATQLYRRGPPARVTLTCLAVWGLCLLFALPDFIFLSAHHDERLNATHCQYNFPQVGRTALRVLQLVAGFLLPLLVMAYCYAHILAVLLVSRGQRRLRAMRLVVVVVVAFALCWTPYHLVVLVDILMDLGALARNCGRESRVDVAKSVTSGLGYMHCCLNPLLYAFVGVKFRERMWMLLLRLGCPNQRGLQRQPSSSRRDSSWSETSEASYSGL
The test is described as follows: PathHunter β-arrestin assay, positive allosteric modulation (PAM) mode. The format is cell-based. Particulars: control agonist; read-out: EC50 of positive control ligand. As for the experimental part: as §1, §2

As for `COc1cc2ccnc3c2c(c1O)NC=C3` [9-demethyl aaptamine], the EC50 in test [1] was 4100 nM.
`COC1=Cc2ccnc3ccnc(c23)C1=O` [demethyl(oxy)-aaptamine]: the EC50 in test [1] is 2300 nM.
On to “CCL3: ligand used as positive control for CCR3”, for which the EC50 in test [2] was determined as 3 nM.
In test [3], “CCL13: ligand used as positive control for CCR1” returned an EC50 of 26 nM.
“CXCL11: ligand used as positive control for CXCR3”: the EC50 in test [4] is 6.7 nM.

Source of the values: publication PMC8466755, “GPCR Pharmacological Profiling of Aaptamine from the Philippine Sponge Stylissa sp. Extends Its Therapeutic Potential for Noncommunicable Diseases” (Molecules, 2021).
